Test results: article PMC3060798, “Molecular Determinants of S100B Oligomer Formation” (PLoS ONE, 2011)
“And” between values parts separate entries of the source, which are not always exact repeats. Equal entries are not always repeated.

B1: S100B dimer (highly pure, trigger-free) (natural protein, rat, UniProt P04631 1-92, looked up)
chain: MSELEKAMVALIDVFHQYSGREGDKHKLKKSELKELINNELSHFLEEIKEQEVVDKVMETLDEDGDGECDFQEFMAFVSMVTTACHEFFEHE
notes: S100B, rat; plasmid with the rat S100B gene (gift from D. Weber); monomer 10.7 kDa, dimer 21.5 kDa as printed; Homodimer; No tag is mentioned; In rows of m1 with m1 the step meant (monomers to dimer, or dimers to tetramer and higher) is told in the assay's format; also called trigger-free S100B; trigger-free S100B dimer
B2: S100B hexamer (natural protein, rat, UniProt P04631 1-92, looked up)
chain: B1 chain
notes: S100B, rat; same chain as m1, isolated as hexamer (64.5 kDa expected); Same polypeptide as m1 in another oligomeric state; free of imidazol after gel filtration; also called hexamer fraction; source: E. coli BL21 De3 PLysS star; trigger-free dimer triggered with 90 mM imidazol, hexamer fraction collected from Superdex 200 gel filtration
B3: S100B tetramer (natural protein, rat, UniProt P04631 1-92, looked up)
chain: B1 chain
notes: S100B, rat; same chain as m1, isolated as tetramer (43.0 kDa expected); Same polypeptide as m1 in another oligomeric state; free of imidazol after gel filtration; also called tetramer fraction; source: E. coli BL21 De3 PLysS star; trigger-free dimer triggered with 90 mM imidazol, tetramer fraction collected from Superdex 200 gel filtration

Experiments:
[1] = molecular target: the molecule itself; assay: SEC; analytical gel filtration on Superdex 200; step: dimers to tetramer, hexamer and higher oligomers; 20 mg/ml trigger-free S100B dimer with imidazol (20-900 mM, optimum 90 mM), 1 mM EDTA, 1 mM DTT, 0.25 M NaCl, pH 7.0, lyophilized, dissolved, incubated 24 h at 4 °C
[2] = molecular target: T1, p53 target peptide (Met followed by residues 367-388 of p53, Phe 385 changed to Trp) (Phe 385 changed to Trp (stands in the printed letters)); assay: other fluorescence titration; p53 peptide (0.07-1.3 µM) titrated with S100B dimer, tetramer or hexamer stock; 10 mM BisTris, 5 mM CaCl2, pH 7, 25 °C; Trp emission at 330 nm, excitation 295 nm; 1:1 binding model fitted against total S100B monomer concentration; conditions: both partners purified
T1 construct: added Met before the p53 residues; p53, C-terminal regulatory domain, residues 367-388 with Phe 385 changed to Trp; the peptide was cleaved off; also called p53 peptide; target peptide from p53; source: E. coli ER2566, purified (DEAE cellulose, chitin column, cleaved off from the intein with 50 mM DTT, G25 gel filtration)
T1 peptide: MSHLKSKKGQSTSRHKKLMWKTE

[3] = molecular target: the molecule itself; assay: SEC; hexamer, tetramer and dimer fractions collected after imidazol triggering, reinjected on Superdex 200 and analysed repeatedly during storage for up to 6 months in solution at 4 °C
[4] = molecular target: the molecule itself; assay: dynamic light scattering; ZetaSizer Nano-S; fractions collected directly from the Superdex200 column in 25 mM sodium carbonate with 25 mM HCl, pH 7.3

Binder	stoichiometry N [1]	stoichiometry N [2]	stoichiometry N [3]	stoichiometry N [4]
B1	4 and 6	2 peptides per dimer	2	
B2		6 peptides per hexamer		6
B3		4 peptides per tetramer		4
